Blank lines part the entries; values can stand above or below the substance they belong to.
Assays:
[1] = target: mouse anti-human BCL2 oncoprotein, Clone 124 (DakoCytomation code No. M0887); assay: IHC on FFPE tonsil: unconjugated M0887 1:100 (0.015 uM) on tissue, then K5007 GaM:HRP 30 min
[2] = target: Human Epithelial Membrane Antigen (human) (UniProt P15941); assay: IHC on multi-block FFPE tissue, primary 1:6400, K5007 reference
[3] = target: Human Epithelial Membrane Antigen (human) (UniProt P15941); assay: IHC on multi-block FFPE tissue, primary 1:6400, PNA system (D12102 + D12094)
[4] = target: Human Estrogen Receptor (human) (UniProt P03372); assay: IHC on multi-block FFPE tissue, primary 1:200, K5007 reference
[5] = target: Human Estrogen Receptor (human) (UniProt P03372); assay: IHC on multi-block FFPE tissue, primary 1:200, PNA system (D12102 + D12094)
[6] = target: Human CD68 (human) (UniProt P34810); assay: IHC on multi-block FFPE tissue, primary 1:800, PNA system (D12102 + D12094)
[7] = target: Human CD68 (human) (UniProt P34810); assay: IHC on multi-block FFPE tissue, primary 1:800, K5007 reference
[8] = target: Human CD45 LCA (human) (UniProt P08575); assay: IHC on multi-block FFPE tissue, primary 1:1600, K5007 reference
[9] = target: Human CD45 LCA (human) (UniProt P08575); assay: IHC on multi-block FFPE tissue, primary 1:1600, PNA system (D12102 + D12094)
[10] = target: Tonsil tissues; assay: IHC on FFPE tonsil, negative control IgG1 1:300, EnVision-based detection K5007
[11] = target: Human Desmin (human) (UniProt P17661); assay: IHC on multi-block FFPE tissue, primary 1:1200, K5007 reference
[12] = target: Human Desmin (human) (UniProt P17661); assay: IHC on multi-block FFPE tissue, primary 1:1200, PNA system (D12102 + D12094)
[13] = target: Human CD20cy (human) (UniProt P11836); assay: IHC on FFPE tonsil, primary 1:8000, EnVision-based detection K5007
[14] = target: Human CD20cy (human) (UniProt P11836); assay: IHC on multi-block FFPE tissue, primary 1:8000, PNA system (D12102 + D12094)
[15] = target: Human CD20cy (human) (UniProt P11836); assay: IHC on FFPE tonsil, primary 1:2000, PNA based detection (D12102 + D12094)
[16] = target: Human CD20cy (human) (UniProt P11836); assay: IHC on multi-block FFPE tissue, primary 1:8000, K5007 reference
[17] = target: Human CD20cy (human) (UniProt P11836); assay: IHC on FFPE tonsil, primary 1:8000, PNA based detection (D12102 + D12094)
[18] = target: Human CD20cy (human) (UniProt P11836); assay: IHC on FFPE tonsil, primary 1:14000, PNA based detection (D12102 + D12094)
[19] = target: Human Ki-67 Antigen (human) (UniProt P46013); assay: IHC on multi-block FFPE tissue, primary 1:1200, K5007 reference
[20] = target: Human Ki-67 Antigen (human) (UniProt P46013); assay: IHC on FFPE tonsil, primary 1:1200, PNA based detection (D12102 + D12094)
[21] = target: Human Ki-67 Antigen (human) (UniProt P46013); assay: IHC on FFPE tonsil, primary 1:1200, EnVision-based detection K5007
[22] = target: Human Ki-67 Antigen (human) (UniProt P46013); assay: IHC on FFPE tonsil, primary 1:400, PNA based detection (D12102 + D12094)
[23] = target: Human Ki-67 Antigen (human) (UniProt P46013); assay: IHC on multi tissue section, M7240 1:150, 3-layer PNA system with AP / Permanent Red; first of two scores, taken as the specific one
[24] = target: Human Ki-67 Antigen (human) (UniProt P46013); assay: IHC on multi-block FFPE tissue, primary 1:1200, PNA system (D12102 + D12094)
[25] = target: Human Ki-67 Antigen (human) (UniProt P46013); assay: Double IHC on multi tissue sections, M7240 1:150, 3-layer PNA system with HRP, detection method 1
[26] = target: Human Ki-67 Antigen (human) (UniProt P46013); assay: IHC on multi tissue section, M7240 1:150, 3-layer PNA system with HRP, DAB+
[27] = target: Human Ki-67 Antigen (human) (UniProt P46013); assay: Double IHC on multi tissue sections, M7240 1:150, 3-layer PNA system with HRP, detection method 2
[28] = target: Human Ki-67 Antigen (human) (UniProt P46013); assay: IHC on FFPE tonsil, primary 1:2400, PNA based detection (D12102 + D12094)
[29] = target: Human Ki-67 Antigen (human) (UniProt P46013); assay: Double IHC on multi tissue sections, M7240 1:150, 3-layer PNA system with AP
[30] = target: Human p27 (human) (UniProt P46527); assay: IHC on multi-block FFPE tissue, primary 1:400, K5007 reference
[31] = target: Human p27 (human) (UniProt P46527); assay: IHC on multi-block FFPE tissue, primary 1:400, PNA system (D12102 + D12094)
[32] = target: human BCL2 oncoprotein (human) (UniProt P10415); assay: IHC on multi-block FFPE tissue, primary 1:500, PNA system (D12102 + D12094)
[33] = target: human BCL2 oncoprotein (human) (UniProt P10415); assay: IHC on multi-block FFPE tissue, primary 1:500, K5007 reference
[34] = target: Human Cytokeratin (human); assay: IHC on multi-block FFPE tissue, primary 1:900, PNA system (D12102 + D12094)
[35] = target: Human Cytokeratin (human); assay: Double IHC on multi tissue sections, M3515 1:50, GaM-dex-PNA1 (209-149) + PNA2-dex-HRP (209-157), detection method 1
[36] = target: Human Cytokeratin (human); assay: IHC on FFPE tonsil, primary 1:300, PNA based detection (GAM/dextran/PNA1 D12102 + HRP/dextran/PNA2 D12094); score 0 to 3+
[37] = target: Human Cytokeratin (human); assay: IHC on FFPE tonsil, primary 1:900, PNA based detection (D12102 + D12094)
[38] = target: Human Cytokeratin (human); assay: IHC on FFPE tonsil, primary 1:900, EnVision-based detection K5007
[39] = target: Human Cytokeratin (human); assay: IHC on FFPE tonsil, primary 1:1600, PNA based detection (D12102 + D12094)
[40] = target: Human Cytokeratin (human); assay: IHC on multi-block FFPE tissue, primary 1:900, K5007 reference
[41] = target: Human Cytokeratin (human); assay: Double IHC on multi tissue sections, M3515 1:50, GaM-dex-PNA1 + PNA2-dex-HRP, DAB+
[42] = target: Human Cytokeratin (human); assay: Double IHC on multi tissue sections, M3515 1:50, GaM-dex-PNA1 (209-149) + PNA2-dex-HRP (209-157), detection method 2

UniProt P11836, sequence (P11836 whole entry): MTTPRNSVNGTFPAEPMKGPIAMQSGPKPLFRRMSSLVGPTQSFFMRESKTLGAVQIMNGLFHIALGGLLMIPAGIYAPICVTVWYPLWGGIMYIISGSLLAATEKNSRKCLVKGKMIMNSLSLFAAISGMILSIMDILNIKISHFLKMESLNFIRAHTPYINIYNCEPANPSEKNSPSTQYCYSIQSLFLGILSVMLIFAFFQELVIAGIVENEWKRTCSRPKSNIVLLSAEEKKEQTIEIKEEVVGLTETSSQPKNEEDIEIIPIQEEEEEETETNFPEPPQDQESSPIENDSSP
UniProt P46013, sequence (P46013 whole entry): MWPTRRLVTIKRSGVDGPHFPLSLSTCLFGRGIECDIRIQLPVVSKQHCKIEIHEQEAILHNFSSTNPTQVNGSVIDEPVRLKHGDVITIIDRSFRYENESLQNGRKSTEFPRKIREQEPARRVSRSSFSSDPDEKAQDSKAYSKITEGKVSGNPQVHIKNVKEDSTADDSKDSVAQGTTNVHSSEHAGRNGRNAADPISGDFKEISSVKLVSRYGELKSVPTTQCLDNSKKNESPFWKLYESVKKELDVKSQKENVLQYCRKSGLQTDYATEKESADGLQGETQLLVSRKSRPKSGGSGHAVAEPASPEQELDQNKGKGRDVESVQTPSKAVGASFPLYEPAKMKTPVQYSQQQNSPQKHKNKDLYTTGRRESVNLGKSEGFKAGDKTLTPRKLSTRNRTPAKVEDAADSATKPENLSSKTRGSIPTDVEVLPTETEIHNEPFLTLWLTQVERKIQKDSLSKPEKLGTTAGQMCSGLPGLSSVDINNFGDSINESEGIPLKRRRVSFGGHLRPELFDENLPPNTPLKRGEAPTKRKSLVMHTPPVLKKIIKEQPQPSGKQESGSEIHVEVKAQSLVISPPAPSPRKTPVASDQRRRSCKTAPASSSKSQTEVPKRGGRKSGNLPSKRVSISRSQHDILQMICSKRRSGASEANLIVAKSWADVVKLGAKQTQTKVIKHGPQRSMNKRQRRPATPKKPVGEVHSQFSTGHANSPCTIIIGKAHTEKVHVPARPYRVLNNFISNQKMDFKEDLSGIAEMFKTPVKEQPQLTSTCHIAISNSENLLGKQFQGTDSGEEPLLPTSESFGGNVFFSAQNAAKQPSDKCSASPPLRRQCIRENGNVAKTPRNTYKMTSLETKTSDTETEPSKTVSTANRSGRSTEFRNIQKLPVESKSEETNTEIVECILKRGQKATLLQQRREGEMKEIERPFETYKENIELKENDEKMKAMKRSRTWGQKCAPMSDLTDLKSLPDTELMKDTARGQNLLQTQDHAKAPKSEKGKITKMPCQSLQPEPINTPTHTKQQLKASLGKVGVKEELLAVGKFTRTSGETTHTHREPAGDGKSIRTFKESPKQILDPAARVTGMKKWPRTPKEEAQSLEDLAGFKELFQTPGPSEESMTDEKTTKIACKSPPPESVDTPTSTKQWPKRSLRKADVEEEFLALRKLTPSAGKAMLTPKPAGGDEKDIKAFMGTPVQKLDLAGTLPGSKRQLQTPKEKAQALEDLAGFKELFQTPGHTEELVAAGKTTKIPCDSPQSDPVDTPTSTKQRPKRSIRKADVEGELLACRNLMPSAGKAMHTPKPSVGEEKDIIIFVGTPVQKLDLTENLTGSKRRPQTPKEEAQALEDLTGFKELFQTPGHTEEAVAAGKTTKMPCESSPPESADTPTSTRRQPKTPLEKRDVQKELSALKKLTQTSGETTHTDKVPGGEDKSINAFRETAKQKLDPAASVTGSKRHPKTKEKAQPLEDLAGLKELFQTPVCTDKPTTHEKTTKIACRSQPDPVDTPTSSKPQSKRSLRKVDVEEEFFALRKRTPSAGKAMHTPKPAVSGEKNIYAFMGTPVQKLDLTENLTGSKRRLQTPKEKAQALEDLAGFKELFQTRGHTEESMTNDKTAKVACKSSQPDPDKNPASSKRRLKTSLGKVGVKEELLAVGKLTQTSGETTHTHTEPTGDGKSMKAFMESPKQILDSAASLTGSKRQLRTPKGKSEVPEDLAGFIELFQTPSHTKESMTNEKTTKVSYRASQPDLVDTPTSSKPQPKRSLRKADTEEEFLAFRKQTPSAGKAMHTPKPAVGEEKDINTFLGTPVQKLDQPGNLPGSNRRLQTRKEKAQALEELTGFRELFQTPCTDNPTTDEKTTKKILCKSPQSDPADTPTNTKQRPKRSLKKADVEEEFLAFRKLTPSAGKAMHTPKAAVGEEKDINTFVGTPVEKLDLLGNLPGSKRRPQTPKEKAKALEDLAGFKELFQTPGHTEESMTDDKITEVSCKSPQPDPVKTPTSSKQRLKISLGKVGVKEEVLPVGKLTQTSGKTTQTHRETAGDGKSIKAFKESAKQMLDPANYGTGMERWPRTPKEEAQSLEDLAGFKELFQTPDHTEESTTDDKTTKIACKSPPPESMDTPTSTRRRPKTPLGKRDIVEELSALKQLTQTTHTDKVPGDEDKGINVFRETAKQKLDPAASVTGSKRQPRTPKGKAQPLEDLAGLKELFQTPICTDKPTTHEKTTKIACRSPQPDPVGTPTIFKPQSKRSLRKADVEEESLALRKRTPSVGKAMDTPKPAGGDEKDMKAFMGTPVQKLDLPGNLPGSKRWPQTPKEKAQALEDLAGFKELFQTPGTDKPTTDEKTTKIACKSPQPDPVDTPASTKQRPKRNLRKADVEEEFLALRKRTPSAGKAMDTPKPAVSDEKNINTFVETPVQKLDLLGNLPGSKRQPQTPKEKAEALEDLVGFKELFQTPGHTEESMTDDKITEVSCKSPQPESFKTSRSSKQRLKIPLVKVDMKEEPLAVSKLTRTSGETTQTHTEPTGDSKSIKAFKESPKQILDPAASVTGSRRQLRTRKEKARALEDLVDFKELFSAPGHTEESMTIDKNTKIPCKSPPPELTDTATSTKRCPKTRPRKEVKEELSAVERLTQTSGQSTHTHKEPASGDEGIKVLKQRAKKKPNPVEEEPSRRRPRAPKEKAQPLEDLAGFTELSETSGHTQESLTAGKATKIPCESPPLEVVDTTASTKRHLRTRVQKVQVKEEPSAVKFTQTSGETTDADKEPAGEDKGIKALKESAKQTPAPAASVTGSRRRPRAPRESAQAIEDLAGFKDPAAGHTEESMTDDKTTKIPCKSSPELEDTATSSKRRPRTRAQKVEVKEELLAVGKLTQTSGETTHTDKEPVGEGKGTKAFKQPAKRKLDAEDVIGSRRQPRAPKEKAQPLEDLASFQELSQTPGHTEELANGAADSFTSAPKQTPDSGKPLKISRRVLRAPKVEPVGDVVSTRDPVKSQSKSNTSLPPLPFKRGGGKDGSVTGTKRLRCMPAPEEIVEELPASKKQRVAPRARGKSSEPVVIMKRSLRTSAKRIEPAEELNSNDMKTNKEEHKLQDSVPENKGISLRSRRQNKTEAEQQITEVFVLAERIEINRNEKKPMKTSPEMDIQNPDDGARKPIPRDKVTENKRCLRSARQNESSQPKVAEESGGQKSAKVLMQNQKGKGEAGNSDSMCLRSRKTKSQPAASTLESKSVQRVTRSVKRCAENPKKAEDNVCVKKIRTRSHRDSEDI
UniProt P15941, sequence (P15941 24-1255 limits assumed): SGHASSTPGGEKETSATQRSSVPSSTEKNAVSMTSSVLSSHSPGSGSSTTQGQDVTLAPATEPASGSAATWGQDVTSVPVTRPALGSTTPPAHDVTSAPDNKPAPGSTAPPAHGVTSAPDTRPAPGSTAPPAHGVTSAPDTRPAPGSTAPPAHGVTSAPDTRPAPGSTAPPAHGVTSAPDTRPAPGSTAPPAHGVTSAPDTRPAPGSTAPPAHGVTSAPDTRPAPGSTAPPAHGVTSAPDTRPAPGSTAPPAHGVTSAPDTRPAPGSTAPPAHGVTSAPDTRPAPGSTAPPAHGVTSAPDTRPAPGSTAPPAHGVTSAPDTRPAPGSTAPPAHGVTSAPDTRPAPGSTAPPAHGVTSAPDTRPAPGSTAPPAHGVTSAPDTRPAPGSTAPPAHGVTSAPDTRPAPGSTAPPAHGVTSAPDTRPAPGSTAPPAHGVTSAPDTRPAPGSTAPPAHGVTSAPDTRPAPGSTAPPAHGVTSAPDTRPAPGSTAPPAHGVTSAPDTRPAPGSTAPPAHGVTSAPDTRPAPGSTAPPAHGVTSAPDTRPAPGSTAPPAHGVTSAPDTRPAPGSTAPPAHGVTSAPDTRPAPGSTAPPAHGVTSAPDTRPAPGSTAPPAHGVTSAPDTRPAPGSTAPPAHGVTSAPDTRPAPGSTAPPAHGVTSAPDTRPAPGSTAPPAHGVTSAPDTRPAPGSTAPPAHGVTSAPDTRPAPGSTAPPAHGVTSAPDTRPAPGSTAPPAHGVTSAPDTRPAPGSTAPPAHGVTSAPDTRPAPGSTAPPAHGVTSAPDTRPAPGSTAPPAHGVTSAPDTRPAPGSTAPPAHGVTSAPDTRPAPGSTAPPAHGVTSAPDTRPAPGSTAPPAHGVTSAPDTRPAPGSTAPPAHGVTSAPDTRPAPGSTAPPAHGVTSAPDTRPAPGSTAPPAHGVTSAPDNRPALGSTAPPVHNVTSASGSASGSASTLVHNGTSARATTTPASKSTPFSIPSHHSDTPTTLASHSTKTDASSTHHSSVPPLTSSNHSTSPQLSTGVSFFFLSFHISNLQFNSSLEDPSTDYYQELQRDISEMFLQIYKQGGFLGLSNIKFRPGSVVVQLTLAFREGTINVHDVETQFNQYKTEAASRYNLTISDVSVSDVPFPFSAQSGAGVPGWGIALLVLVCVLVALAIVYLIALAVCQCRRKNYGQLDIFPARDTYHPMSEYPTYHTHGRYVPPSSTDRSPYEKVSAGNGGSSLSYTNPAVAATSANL
UniProt P46527, sequence (P46527 whole entry): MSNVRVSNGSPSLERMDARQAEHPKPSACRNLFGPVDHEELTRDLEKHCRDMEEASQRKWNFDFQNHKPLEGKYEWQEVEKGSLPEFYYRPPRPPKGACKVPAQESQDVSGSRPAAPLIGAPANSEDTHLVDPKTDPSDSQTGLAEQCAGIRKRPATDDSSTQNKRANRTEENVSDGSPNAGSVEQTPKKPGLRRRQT

- Specific staining intensity with K5007 [1]: 3 score
Substance: K5007 GaM:HRP complex (ChemMate EnVision Detection kit Rabbit/Mouse, DakoCytomation code No. K5007 bottle A) (antibody)

- Specific staining intensity [2]: 1.5 score
- Specific staining intensity [3]: 2.5 score
Substance: Monoclonal Mouse Anti-Human Epithelial Membrane Antigen (DakoCytomation code No. M0613) (antibody)

- Specific staining intensity [4]: 2.5 score
- Specific staining intensity [5]: 3 score
Substance: Monoclonal Mouse Anti-Human Estrogen Receptor (DakoCytomation code No. M7047) (antibody)

- Specific staining intensity [6]: 2 score
- Specific staining intensity [7]: 2 score
Substance: Monoclonal Mouse Anti-Human CD68 (DakoCytomation code No. M0876) (antibody)

- Specific staining intensity [8]: 2 score
- Specific staining intensity [9]: 3 score
Substance: Monoclonal Mouse Anti-Human CD45 LCA (DakoCytomation code No. M0701) (antibody)

- Specific staining intensity [10]: 0 score
Substance: mouse IgG1 negative control (DakoCytomation code No. X0931) (antibody)

- Specific staining intensity [11]: 1.5 score
- Specific staining intensity [12]: 1.5 score
Substance: Monoclonal Mouse Anti-Human Desmin (DakoCytomation code No. M0760) (antibody)

- Specific staining intensity [13]: 2 score
- Specific staining intensity [14]: 1.5 score
- Specific staining intensity [15]: 3 score
- Specific staining intensity [16]: 1.5 score
- Specific staining intensity [17]: 2.5 score
- Specific staining intensity [18]: 1.5 score
Substance: Monoclonal Mouse Anti-Human CD20cy (DakoCytomation code No. M0755) (antibody)

- Specific staining intensity [19]: 1.5 score
- Specific staining intensity [20]: 2.5 score
- Specific staining intensity [21]: 2 score
- Specific staining intensity [22]: 3 score
- staining score [23]: 1
- Specific staining intensity [24]: 2 score
- specific staining [25]: 1.5 score
- Staining intensity score [26]: 2.5
- specific staining [27]: 1.5 score
- Specific staining intensity [28]: 1.5 score
- specific staining [29]: 2 score
Substance: Monoclonal Mouse Anti-Human Ki-67 Antigen (DakoCytomation code No. M7240) (antibody)

- Specific staining intensity [30]: 1.5 score
- Specific staining intensity [31]: 2.5 score
Substance: Monoclonal Mouse Anti-Human p27 (DakoCytomation code No. M7203) (antibody)

- Specific staining intensity [32]: 2 score
- Specific staining intensity [33]: 2 score
Substance: mouse anti-human BCL2 oncoprotein, Clone 124 (DakoCytomation code No. M0887) (antibody)

- Specific staining intensity [34]: 2 score
- specific staining [35]: 2.5 score
- Specific staining intensity [36]: 3 score
- Specific staining intensity [37]: 2.5 score
- Specific staining intensity [38]: 2 score
- Specific staining intensity [39]: 1.5 score
- Specific staining intensity [40]: 1.5 score
- specific staining [41]: 3 score
- specific staining [42]: 3 score
Substance: Monoclonal Mouse Anti-Human Cytokeratin (DakoCytomation code No. M3515) (antibody)

Reference: US9017992
